Test results taken from a protein production outcome set (Wang et al. 2014).

test: label from the status in PepcDB records

Sequence	protein production
MNIKEYLQQHPQWKKRIHGFIMHPVKTRPYWWIRVWQPFYIKKGRGSVIYSSVRKDLPPFHLFQMGKYSVVEDFSCLNNAVGDIVIGDYCRIGLGNTVIGPIRIDNGVNISQNVVLIGLDHNYQDITQGIIEQGITTSPIHIGEHTIIGANVIVLPGITIGKHCFIGAGCVVTQNIPDYCVTVGNPARIIKRYNPQSQTWEKI	failed
MNIMEIEKTNRMNALFEFYAALLTDKQMNYIELYYADDYSLAEIADEFGVSRQAVYDNIKRTEKILETYEMKLHMYSDYVVRSEIFDDMIAHYPHDEYLQEKISILTSIDNRE	not failed
MNIPAAEPRARMTLAEFHRLLADQHPFAQVLGIDVVDIGHGTARAVLPARDTHQRLGGIVAGPMLMGLADLTMYAAVVGATGQAGAVTANLTIHFLRKTSGAAVIADARVLKTGRLAMAEAILRCDGADEPVAHVVSAWAVPAP	failed
MNIQIKKRFLANLLLFSLFCLKAETLSEDHQILLSSDAFHRGDFAAAQKGYMNLYKQTNKVVYAKEAAISAASLGDIKTAMHLAMLYQKITNNRNDVSINKILVDGYAQMGQIDKAIELLHKIRKEEKTIATDNVLGTLYLTQKRLDKAFPLLNKFYNQVHDEDSLEKLITIYFLQNRKKEGLDLLQSHIDRYGCSEQLCQKALNTFTQFNELDLAKTTFARLYEKNPIVQNAQFYIGVLILLKEFDKAQKIAELFPFDRRLLLDLYTAQKKFDQASKQASLIYQEKKDPKFLGLEAIYHYESLSANKKKLTKEEMLPIIQKLEQATKERQAWLAKTKDKEDAQDAFFYNFLGYSLIDYDMDIKRGMDFVRKALALDSGSVLYLDSLAWGYYKLGNCLEAKKIFSSIAKESIQAEPELKEHNKIIQECKK	failed
MNIQSILSDKIKQAMILAGADQSCDALIRQSGKPQFGDYQANGIMAAAKKLGLNPREFAQKVLDNLQLSDIAEKLEIAGPGFINIFLNPTWLTTEISAALSHK	failed
MNIREIAAKCSKCGYCTTCPTYRIEGWETVSPRGKIQLALKYVDGEIDVDQKIVKDIFKCSVCGLCQEVCPVELPLIDFWEELRRTLVQKGLAPLSVHRKLREITFRNYNPYSGDQERRGDWADFEIKPAKTLYFAGCTASFRLQNLAKSTASVLEKLGIDFTIAGKNEYCCGSPFLRTGQKDIVERLFEKNYAYWQKMGIERIITSCPGCYRTISLDYPKIAEEKGYEFDIEVVHTVSILDKMGEFEKIDLKATYHDPCHLGRHMGMYEEPRNVIKRLGINFVEMERNREQALCCGAGGGLRSQFPEISFEIGRQRVLEAMETGAEYLITCCPFCEYHLSKSAEKLGNRIKVVDLVEIAEKLISP	failed
MNIRITNIQKQLHKYGIDGLLITKKENRQYATGFTGSAGVVLISADQAVFITDFRYVDQAKSQIQDAEIVMHKGNLEKEIAHQVSKLNIQKLGIEENNMTLQQYKNLQKYVHTEMIQVCEIIESIRIIKDTPEIETMKIAAHIADEAFHHILTFLKPGISENDVRDELEFFMRKKGATSSSFQIIVASGVRSSLPHGVASNKIIERSDIVTLDFGALYDGYCSDITRTVAIGEPSEEFKKIYNIVREALKRGTEAIKPGETAKRIDDITRNYITEHGYGQYFGHSTGHGLGLEIHEPLRLSQESKATLEEGMVVTVEPGIYIPNWGGCRIEDDIVITKDGYEVITKSNRELIVIPC	failed
MNIRPSQIKHKQRIASFITHAVVVVMGVLIVSVLFQSYQISSRLMAQEGQRTSVQTSSLIQSLFDFRLAALRIHQDSTAKNASLINALVSRDSSRLDEFFSSVDELELSNAPDLRFISSHDNILWDDGNASFYGIAQQELNKLIRRVAISGNWHLVQTPSEGKSVHILMRRSSLIEAGTGQVVGYLYVGIVLNDNFALLENIRSGSNSENLVLAVDTTPLVSTLKGNEPYSLDYVVHSAKDAMRDSFIVGQTFLEVESVPTYLCVYSIQTNQNVLTLRDNFYFWMAFALISMIGVSIASRWWLQKRIQREIETLMNYTHKLMDLDTKSEFIGSKIYEFDYFGRTLEQSFRRLANKEKQFEDLFNFALSPTMLWNTSGRLIRMNPSAQIQFLREDAQNHFLFEILERQLLPTITNAAQGNNPSDVTTEVDGRVYRWNLSPIMVEGQIISIITQGQDITTIAEAEKQSQAARREAEESARVRAEFLAKMSHELRTPLNGVLGVSQLLKRTPLNDEQREHVAVLCSSGEHLLAVLNDILDFSRLEQGKFRIQKNEFRLKELVCAIDRIYRPLCNEKGLELVVNSNITTAAIVRSDQIRINQILFNLLNNAIKFTHQGSIRVELQLIEGDPLAQLVIQVVDTGIGIREQDLTVIFEPFMQAESTTTREYGGSGLGLTIVHSLVEMLSGQLHVSSEYGIGTRFEIQLPIELVEKPDAPQQLLPAPDPQPLFDKTLRVLLVEDNHTNAFIAQAFCRKYGLDVSWVTDGLQAIEELKIHDYDLVLMDNQLPYLDGVETTRTIKKVLHLPVVVYACTADGLEETRQAFFHAGAEYVLVKPLKEQTLHKALEHFKHHHGQKNAGLN	failed
MNISLSRVHFPVTTLGPGQRLGLWFQGCSIRCAGCISADTWGPGKHPLPLAQVLDDLQPWLARAEGITLSGGEPFDQPEALLALLRGLRERTGVDILVYSGHSLETLQPLLQQAEGLLDALICDPFEQQQAQTLVLRGSDNQRLIFLTELGRQRLSTYQRPLHHEDRALDVMFDDDGSVWMAGIPRRDDVLRLRDLLHDQGHQLQISAHTSRRRLEHHHHHH	failed
MNITGIIAEYNPMHNGHIHHLEKTKEICKSDVILCVMSGDFVQRGEPAIIDKWSRAYAALSSGVDLVIELP	failed
MNIWIRGGTSDANTISKEIKRNFKDSFLILTTTTDFGGKIAENFADFVISEKMNYDNLKKTLVNKKIDVFIDATHPFATHASETGMKISKELNIPYIRYERPVEEFKDVFYVENFEEAAKLALKISKKNIFYMSGIKNLKTVSEIIPIEKLIVRILPTSVPEALKILPSKNIVAMQGVFSENLNKDLITDYNCDVIITKDSGKSGGLYEKVSGAVLAGAKPIIIKRPEINYPLKFEKIDELVNYLKN	failed
MNKERNIIIAKNIRKFLNDSNMSQKKLAELINIKPSTLSDYLNLRSNPSHGVIQRIADVFEVGKSDIDTTYKDDNDITSIYNKLTPPRQENVLNYANEQLEEQNSKGDNVVDINSYKQEKTPVNVNGCVSAGVGERLHDETLFTEMVKGPIPTHDLALKVNGDSMEPMFKDGEIIFVEKTHNIKNGQIGIFIIEEEAYVKKVFVEDDRLTLVSLNKDYDDLHFYRNESVRLIGKVIL	failed
MNKETVLYVVIALLVGILGTVLVVGVVNKQKPAPATAGIPAGGGSPVDYQQRIAEAEKVVANDPKNLQAWIQLGNDYFDTDQAQKAINAYGKALELDPTNANVLTDQGIMFKRVGWFDKAIANFEKAQQLDPKHLQSLYNLGVVYMSDLKQPAKAVKYWERYLELDPMGPNSQQIRTMLEEAKGMAQTPSPQGQLFRK	failed
MNKGILIVLLAGLVSACTHKEKNPLDSLPDMSAVRANLAFTCVHEADHLPPLDPEADQLFQYGRYLQKKEGPKNFNEVARYYRIAAAYGHYKANSNLQGLVSQGIADSPDAPKETIDLAAQLVNQGIPGGYYDIGHYLELGYGLKQDPEMALRYIRKAADLGNPDAQFYVAEKLAPIDNAPAIARQMWQCATDQGHGRAALTLGVDLKTDKLYPDAAKAFQQGAKSGSSTAALSLRDAFHNPSQSDQLNYLAVPHDPERSRRYGLIWKFLKDNDGRSPKVPDIDKIVPLPPAKLPPWDGTFQWEKDQAAAVPPQKPSDELIERLSKAKHLDPATGLPLAKPEQVAQMETEAAPPPARLPLGTIARTGDSCPQDGVWCVSLAKGMVADAEQSFLKGMELPSLTIYQPRRFAWMDNWMGVRQQTVPVAWKLVGYIHEA	failed
MNKHLKIQIMNIHSEREIYSARVLNAPIEIVYEAFANPSYLKNWWGPKGFTNTIHAFDLQPGGKWILTMHGPEKGNYENSSIFKIVEPQKLISWERKSKPLFDMEVEFKKLNNLQTEISFRMTFSTKEDCDKIRSFVEPQNEELRSIRKRNSEHKLIPTCIPRHPHWLVFQSRQ	failed
MNKIQVLDPVTIDKIAAGEVIERPASVVKELVENAIDAGATAIVTEIEEGGISMIRIADNGCGMDASDVPNAFLRHSTSKIRTVEDLVHIGSLGFRGEALSSIAAVSQVEMITKTKDQVLGTRYRIAGGKEEELDETGARDGTTFLIRQLFYNTPARRKFLKTPMTEASHVGDLLTRMALSHPEISFQFINNGQSKLHTSGNGNLKDVIYHVYGREIAANLLAADYESPGLKIRGFLGKPLISRGNRNFENYFINGRYVKSSIISKAIEDAYKDFTMQHKYPFVVLHIEIDGEHVDVNVHPTKMELRFNNQQEVYNSIYAAVDHGLHAEELIPHVEVDAPKAAAPMKQEGGAPHAAQKKDNPVVPDRTTSVQPAPSAKKSVPAPEERTLDYFMQKMKERVAAYHAQQNQEAPKKAPDVKVSAQPSEDRREAPSDRVCETPEYAAQQLNLFEENLVERKVQAEYKIIGQVFETYWLVEFNDSLYIIDQHAAHERVLYEKTLKSMKTREFTSQFISPPIVLDLSMQEAELLNQYMDQFTRIGFEIEEFGQESYAVRAVPGNLFGIAKKDLLLQMLDGLSDEVSRNLSPDMIDEKVASMSCKAAVKGNMKLSATEVDSLIGELLTLENPYHCPHGRPTIIAMTKRELEKKFKRIV	failed
MNKKKDILVIGFALFSIFFGAGNLIFPPYIGLTSGGEWLISFLGFIISDVGIIFLSIVAVSKAGSFQGVVGRAGKKFGITLEILMMLCLGPILVVPRTAATTFEMSISPLLGNVNPYVFSVIFFLIVFVLTIKPNKVMDIIGKVLTPLLLISLAVLIIKGIINPIGDLENVNSGKLFMTGITQGYQTMDALGTGGIVALVMASFASKGYKDKKENRMLTIKSALIACIGLAIVYGGLTFLGATSSTLYDSSISQTTLLMNITNAILGSTGTIMLAIVIGLACLTTAVGLTSVTAKYFEDVSNKKLKYKYIVIAICVFSALSSNLGVDKIIEIAVPILSLIYPVSILLVVMSIFEKFVPNNVVVKGATYATLLISLLTVIDSLGIKFEFVHKLPLANLGFNWVVPAIVGGLIAGLVFRKREVVSLEESY	failed
MNKLKYYCLRYQPYLLGVAFFLAIFLVWAIGRAFGFASLHSLLAGIGVFLLLSAGYVLLLYRGVGQHHNLEGLLRDDADQAVLSAAPADREEVSLLRERLLQGIERLHSNKPRGTSNKDALYALPWYLVIGQPAAGKSTMILQSGLNFPYAEREGVRVAGLGGTRNCDWFFSSEAVLLDTAGRYMNSPEEAGKWRGFLQLLRQHRQRRPLNGLIVSVSIADILHGSVEDQERVAKRLRERIQESCALLEVRLPIYLVFTKCDLIPGFTAFYRQLDDAARGEVMGKTFSHKGYEQADWGQRFSNAMDELTRYWGQMASQQLVQQDIQVTRRNDAAYRFPLELAALKPRLHQFVDSLLRANPYQNAEMLRGFYFTAALQADEAQWGCHGQHVAERFALEHAEGTGTAGSQPAPLFINSLFRKVIIPDQHLVALYTSNHRERRRKAGWVGAAGLAALVLCSLWGWSYLNNRATLASIADELAQAKADDQAASGQYTAWRSLDRLRFWAAHYHEQHHAKGVPLGMRLGLYQGHEVEPLLRDRYFATLQNVMLKPTADNLTRTLYLLTTLKVYQRNTRELQPVSGIDSVEAEALPHDNRAQSIANFGKAALDTYVMLSPGQREHADPAFLKAHLPDYWYPAIARQTGKSMAAAGSEAGGNQDYLYASRQITFYSDQIREPDVPRILDNAFLMSSSRNYIDSLRAQSLRAIETITLESDTLFAFGRADFQSLKNEGQHQLSAIASKLLNTPNIGKIIISGHADQLGDSQGNLQVSKQRAQTIRTYLVGKGVPAELVVAQGEGSRKPLVNCDMQQPRTQLIKCLEPNRRVEIEVRGLN	failed
MNKLYIGNLSPAVTADDLRQLFGDRKLPLAGQVLLKSGYAFVDYPDQNWAIRAIETLSGKVELHGKIMEVDYSVSKKLRS	not failed
